Data as given in patent US20220175781A1, “CD40L COMPOSITIONS AND METHODS FOR TUNABLE REGULATION” (Obsidian Therapeutics, Inc., priority 2019, published 2022).
Substitutions are numbered along the chain they refer to.

Key:
[1] = system: HEK293T cells; test: Soluble CD40L ELISA, transiently transfected HEK293T cells; format: cell-based, human
Description: Soluble CD40L (sCD40L) constructs OT-001672, OT-001686, OT-001673, OT-001674, OT-001677, and OT-001684 were transiently transfected into HEK293T cells. Cells were treated with one of the following ligands 1 μM Shield-1, 50 μM TMP, 1 μM Bazedoxifene (BZD) or vehicle control.
The pg/mL levels of soluble CD40L were measured by ELISA (Table 14). Recombinant soluble CD40L was used as the standard in the experiments.

[2] = system: HEK293T cells; test: Surface expression of CD40L trimerization mutants, transfected HEK293T cells (FACS); format: cell-based, human; conditions: transiently transfected HEK293T cells
Description: Mutations were engineered within CD40L payload to reduce the binding affinity of CD40L payload for the CD40L endogenously expressed by cells. Constructs OT-002078, OT-002079, OT-002080, OT-002081, OT-002082 were generated with the CD40L trimerization mutants. HEK293T cells were transiently transfected with the constructs and CD40L expression was measured by FACS.

[3] = system: T cells (CD4 and CD8); test: Cleavage resistant CD40L expression and TMP regulation in T cells; format: cell-based; conditions: for CD40L expression (percentage of CD40L expressing T cells): day 4
Description: T cells were transduced with OT-001668 and on day 4, the percentage of CD40L expressing T cells (within the both CD4 and CD8) subpopulations was calculated.
T cells were transduced with ecDHFR regulated construct OT-001671 that include a CD40L protein that was resistant to cleavage. On day 4 cells were treated with 10 μM TMP for 24 hours. […] In an independent experiment, T cells transduced with varying volumes of virus corresponding to OT-001671 were treated with increasing doses of TMP for 24 hours. In Table 41, 0.5 μL, 2 μL, and 10 μL indicate the different volumes of virus that were used.

[4] = system: Jurkat cells; test: CD40L shedding ELISA of supernatant, Jurkat cells with or without CD40-Fc receptor; format: cell-based; design: CD40L levels in supernatant: unit not given here; conditions: 6 hours
Description: Sheddases e.g. ADAM10/17 present in the tumor microenvironment can cleave CD40L thereby preventing the successful activation of CD40 by CD40L. […] OT-001669 which has a deletion of amino acids 1-13 of CD40L was designed to reduce internalization and OT-001668 which has a deletion of amino acids 110-116 of CD40L was designed to remove the ADAM10/17 sites. Jurkat cells stably expressing the full length construct OT-001661, OT-001669, or OT-001668 were cultured for 6 hours with 1.25 μg/ml recombinant human (h) or mouse (m) CD40-Fc receptor or left untreated and tested using an ELISA assay (Table 15).

[5] = system: HEK 293T cells; test: hDHFR regulated CD40L surface expression, HEK 293T cells (flow cytometry); format: cell-based, human; conditions: 50 μM TMP 24 hours
Description: HEK 293T cells were transiently […] with hDHFR regulated constructs namely OT-001962, OT-001961, OT-001963 for 24 hours. Following transfection, cells were treated with 50 μM TMP for 24 hours and CD40L cell surface expression was measured using flow cytometry. […] CD40L expression in the absence of ligand was virtually undetectable.

[6] = system: Jurkat cells; test: DHFR regulated CD40L expression, transduced Jurkat cells (flow cytometry); format: cell-based; conditions: for SR: TMP (50 μM) versus Vehicle
Description: Jurkat cells were transduced with lentiviruses corresponding to OT-001662, OT-001962, OT-001961, OT-001963. 24 hours after transduction, cells were split and treated with DMSO or 50 μM TMP for another 24 hours until flow cytometry-based analysis. The results are shown in Table 37 where SR indicates stabilization ration.

[7] = independent experiment with similar setup

B1: OT-001677: Soluble CD40L (sCD40L) construct (protein)
chain: GSSLALSLTADQMVSALLDAEPPILYSEYDPTRPFSEASMMGLLTNLADRELVHMINWAKRVPGFVDLTLHDQVHLLECAWMEILMIGLVWRSMEHPGKLLFAPNLLLDRDQGKCVEGGVEIFDMLLATSSRFRMMNLQGEEFVCLKSIILLNSGVYTFLSSTLKSLEEKDHIHRVLDKITDTLIHLMAKAGLTLQQQHQRLAQLLLILSHIRHMSNKRMEHLYSMKCKNVVPLSDLLLEMLDAHRLGSMHMQKGDQNPQIAAHVISEASSKTTSVLQWAEKGYYTMSNNLVTLENGKQLTVKRQGLYYIYAQVTFCSNREASSQAPFIASLCLKSPGRFERILLRAANTHSSAKPCGQQSIHLGGVFELQPGASVFVNVTDPSQVSHGTGFTSFGLLKL
Stabilization Ratio [1, 7]: 7.2
basal expression in the absence of ligand [1, 7]: very low basal expression

B2: OT-001684: Soluble CD40L (sCD40L) construct (protein)
chain: B1 chain with T69A, D111N, N217S
Stabilization Ratio ([1]; soluble CD40L +Ligand versus Vehicle, HEK293T cells): 1.0

B3: OT-002078: construct with CD40L trimerization mutant (protein)
chain: MGGSGGGSGGGSGMIETYNQTSPRSAATGLPISMKIFMYLLTVFLITQMIGSALFAVYLHRRLDKIEDERNLHEDFVFMKTIQRCNTGERSLSLLNCEEIKSQFEGFVKDIMLNKEETKKENSFEMQKGDQNPQIAAHVISEASSKTTSVLQWAEKGYYTMSNNLVTLENGKQLTVKRQGLYYIYAQVTFCSNREASSQAPFIASLCLKSPGRFERILLRAANTHSSAKPCGQQSIGLFGVFELQPGASVFVNVTDPSQVSHGTGFTSFGLLKL
% CD40L positive [2]: 49.7%

B4: OT-002082: construct with CD40L trimerization mutant (protein)
chain: B3 chain with H138G, G237H, F239G, G240F
% CD40L positive [2]: 0.028%

B5: OT-002080: construct with CD40L trimerization mutant (protein)
chain: B3 chain with Y185G, G237H
% CD40L positive [2]: 0.11%

B6: OT-002079: construct with CD40L trimerization mutant (protein)
chain: B3 chain with F239H
% CD40L positive [2]: 64.7%

B7: OT-001668: cleavage resistant CD40L construct, deletion of amino acids 110-116 of CD40L to remove the ADAM10/17 sites (protein)
chain: MHMIETYNQTSPRSAATGLPISMKIFMYLLTVFLITQMIGSALFAVYLHRRLDKIEDERNLHEDFVFMKTIQRCNTGERSLSLLNCEEIKSQFEGFVKDIMLNKEETKKENDQNPQIAAHVISEASSKTTSVLQWAEKGYYTMSNNLVTLENGKQLTVKRQGLYYIYAQVTFCSNREASSQAPFIASLCLKSPGRFERILLRAANTHSSAKPCGQQSIHLGGVFELQPGASVFVNVTDPSQVSHGTGFTSFGLLKL
CD40L expression (percentage of CD40L expressing T cells) ([3]; CD4+): 95.5%
CD40L expression (percentage of CD40L expressing T cells) ([3]; CD8+): 86.7%
expression of CD40L ([3]; T cells, day 4, CD4 and CD8 subpopulations): High expression of CD40L
CD40L levels in supernatant ([4]; 1.25 μg/ml hCD40-Fc): 10
CD40L levels in supernatant ([4]; 1.25 μg/ml mCD40-Fc): 10
shedding of CD40L ([4]; untreated or with human or mouse CD40-Fc): no shedding
CD40L levels in supernatant ([4]; Untreated): 10

B8: OT-001961: hDHFR regulated CD40L construct (protein)
chain: MVGSLNCIVAVSQNMGIGKNGDLPWPPLRNEFRYFQRMTTTSSVEGKQNLVIMGKKTWFSIPEKNRPLKGRINLVLSRELKEPPQGAHFLSRSLDDALKLTEQPELANKVDMVWIVGGSSVIKEAMNHPGHLKLFVTRIMQDFESDTFFPEIDLEKYKLLPEYPGVLSDVQEEKGIKYKFEVYEKNDHMIETYNQTSPRSAATGLPISMKIFMYLLTVFLITQMIGSALFAVYLHRRLDKIEDERNLHEDFVFMKTIQRCNTGERSLSLLNCEEIKSQFEGFVKDIMLNKEETKKENSFEMQKGDQNPQIAAHVISEASSKTTSVLQWAEKGYYTMSNNLVTLENGKQLTVKRQGLYYIYAQVTFCSNREASSQAPFIASLCLKSPGRFERILLRAANTHSSAKPCGQQSIHLGGVFELQPGASVFVNVTDPSQVSHGTGFTSFGLLKL
% CD40L [5]: 14.6%
% CD40L expression ([6]; TMP (50 μM)): 3.5%
SR [6]: 1.8
% CD40L expression ([6]; Vehicle (DMSO)): 2%

B9: OT-001963: hDHFR regulated CD40L construct (protein)
chain: B8 chain with K55R, N65K
% CD40L [5]: 13.3%
% CD40L expression ([6]; TMP (50 μM)): 20%
SR [6]: 10
% CD40L expression ([6]; Vehicle (DMSO)): 2%
